Each binder was assayed against T1, HLA-A*02:01 (human) (assay: UV-exchange b2m ELISA; exchange-yield grade).
T1 construct: also called peptide-receptive MHC molecules
In short: (§1)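 Peptide–MHC complexes formed by UV-ligand exchange, in which a UV-cleavable peptide is replaced by the test peptide. Exchange yield measured by ELISA detecting β2m of stabilised complexes captured on streptavidin, against refolded HLA-A*02:01/MLA-001 monomer standards (15-500 ng/ml); samples diluted 100-fold.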

Row | peptide exchange yield | Binder
1 | 50 to 75% | STIPALHEI
2 | > 75% | ALIYNLVGI
3 | > 75% | YLVTKVVAV
4 | > 75% | GLLSLTSTLYL
5 | 50 to 75% | RMTTQLLLL
6 | 50 to 75% | YASEGVKQV
7 | > 75% | SLPRFQVTL
8 | > 75% | KVVSVLYNV
9 | 20 to 50% | GVATRVDAI
10 | 50 to 75% | MIPTFTALL
11 | > 75% | GLLQELSSI
12 | 20 to 50% | RQPNILVHL
13 | > 75% | ALFKAWAL
14 | > 75% | KVLGVNVML
15 | 10 to 20% | PLPRPGAVL
16 | 10 to 20% | FAHHGRSL
17 | > 75% | VLQGLLRSL
18 | 10 to 20% | VSSSLTLKV
19 | > 75% | IMFDDAIERA
20 | > 75% | RLWDWVPLA
21 | > 75% | SLLLPSIFL

Row | peptide exchange yield | Binder
22 | > 75% | TTYEGSITV
23 | 50 to 75% | SAIPFSMTL
24 | 50 to 75% | SLGKHTVAL
25 | > 75% | RLLDFINVL
26 | > 75% | ALQAFEFRV
27 | > 75% | FLDPDRHFL
28 | > 75% | FLIEELLFA
29 | > 75% | MMEEMIFNL
30 | 10 to 20% | DTDSSVHVQV
31 | > 75% | TLLKALLEI
32 | 10 to 20% | ISVPAKTSL
33 | > 75% | YLEDTDRNL
34 | > 75% | YMVHIQVTL
35 | > 75% | KLFDTQQFL
36 | 10 to 20% | VLLAGFKPPL
37 | > 75% | ALMRLIGCPL
38 | 50 to 75% | SVTESTHHL
39 | > 75% | YLTDLQVSL
40 | > 75% | TISSLTHEL
41 | 50 to 75% | YTFRYPLSL
42 | 20 to 50% | SLLDLYQL

What follows are binders tested against T2, HLA-B*44:02 (human) (assay: UV-exchange b2m ELISA; exchange-yield grade).
T2 construct: also called peptide-receptive MHC molecules
In short: as §1

Row | peptide exchange yield | Binder
43 | 20 to 50% | REKFIASVI
44 | 10 to 20% | FESHSTVSA
45 | 20 to 50% | QEILTQVKQ
46 | 20 to 50% | TEAVVTNEL
47 | 10 to 20% | SDSQVRAF
48 | 20 to 50% | GEPATTVSL
49 | 20 to 50% | EDAALFKAW
50 | 10 to 20% | EEQYIAQF
51 | 20 to 50% | AEHFSMIRA
52 | 10 to 20% | SEDPSKLEA
53 | 20 to 50% | REPGDIFSEL
54 | 20 to 50% | HEFGHVLGL
55 | 20 to 50% | REEFVSIDHL
56 | 20 to 50% | SEVPTGTTA
57 | 20 to 50% | HESSSHHDL
58 | 20 to 50% | KEAIREHQM
59 | 20 to 50% | IEALSGKIEL (also called lEALSGKIEL)
60 | 10 to 20% | TEFPLFSAA
61 | 10 to 20% | PEKTTHSF
62 | 10 to 20% | LELPPILVY
63 | 20 to 50% | AEQDPDELNKA

These binders were tested against T3, human recombinant HLA-B*08:01 and b2m (human) (assay: pMHC dissociation assay at 37 C; mean half-life grade).
T3 construct: expressed in E. coli and purified; stability of the peptide-MHC complex read as b2m associated with the heavy chain over time at 37 C
Method: Peptide-MHC stability assays for HLA-B*08:01 peptides were performed. The data were obtained using a proximity based, homogenous, real-time assay in order to measure the dissociation of peptides from HLA class I molecules. First, human recombinant HLA-B*08:01 and b2m were expressed in E. coli and purified in a series of liquid chromatography based steps (Ferre et al., 2003; Ostergaard et al., 2001). Then, the stability of a peptide-MHC complex (pMHC) was determined by measuring the amount of b2m associated with the MHC heavy chain over time at 37° C. (Harndahl et al., 2012). The stability of each pMHC, expressed as the half life of b2m associated with the respective heavy chain, was calculated by fitting the data to a one-phase dissociation equation.

Row | mean half-life (T1/2) of peptide-MHC complex | Binder
64 | 6 to 10 h | ALKARTVTF
65 | 4 to 6 h | MPNLRSVDL
66 | 4 to 6 h | VGREKKLAL
67 | > 10 h | LNKQKVTF
68 | 2 to 4 h | DMKKAKEQL
